Results: US7351553B2, “BK beta subunits of Slo family potassium channels” (Icagen, Inc., priority 1999, dated 2008)

Key:
Slo-1 = target: T1, Slo-1 (Homo sapiens, UniProt Q12791); experiment: Whole-cell voltage-clamp of membrane currents in HEK293 cells expressing Slo-1 alone; type: cell-based; details: 250 ms depolarizing steps from holding potential -80 mV; for inhibition (block) of membrane currents: CTX 100 nM
T1 construct: expressed in transfected cells; host or cells: HEK293
Experimental: (§1) FIG. 6. Slo-1/BKB3 forms BK type II-like charybdotoxin-(CTX) insensitive channels. Slo-1 (A) or Slo-1+BK beta 3 (B) were expressed in HEK293 cells and membrane currents measured using the whole-cell voltage-clamp technique. […]. In contrast, membrane currents in cells co-expressing Slo-1 and BK beta 3 were TEA (5 mM) sensitive but CTX (100 nM) insensitive (FIG. 6B). Similar recordings were made from 4 cells expressing Slo-1 alone and 6 cells co-expressing Slo-1/BKB3. Scale bars represent InA and 200 ms.

Slo-1/BKB3 = target: T2, Slo-1/BKB3 (Homo sapiens, UniProt Q12791); experiment: Whole-cell voltage-clamp of membrane currents in HEK293 cells co-expressing Slo-1 and BK beta 3; type: cell-based; details: for sensitivity (block) of membrane currents: CTX 100 nM
T2 construct: expressed in transfected cells; host or cells: HEK293
Experimental: as §1

T2 sequence (Q12791 whole entry): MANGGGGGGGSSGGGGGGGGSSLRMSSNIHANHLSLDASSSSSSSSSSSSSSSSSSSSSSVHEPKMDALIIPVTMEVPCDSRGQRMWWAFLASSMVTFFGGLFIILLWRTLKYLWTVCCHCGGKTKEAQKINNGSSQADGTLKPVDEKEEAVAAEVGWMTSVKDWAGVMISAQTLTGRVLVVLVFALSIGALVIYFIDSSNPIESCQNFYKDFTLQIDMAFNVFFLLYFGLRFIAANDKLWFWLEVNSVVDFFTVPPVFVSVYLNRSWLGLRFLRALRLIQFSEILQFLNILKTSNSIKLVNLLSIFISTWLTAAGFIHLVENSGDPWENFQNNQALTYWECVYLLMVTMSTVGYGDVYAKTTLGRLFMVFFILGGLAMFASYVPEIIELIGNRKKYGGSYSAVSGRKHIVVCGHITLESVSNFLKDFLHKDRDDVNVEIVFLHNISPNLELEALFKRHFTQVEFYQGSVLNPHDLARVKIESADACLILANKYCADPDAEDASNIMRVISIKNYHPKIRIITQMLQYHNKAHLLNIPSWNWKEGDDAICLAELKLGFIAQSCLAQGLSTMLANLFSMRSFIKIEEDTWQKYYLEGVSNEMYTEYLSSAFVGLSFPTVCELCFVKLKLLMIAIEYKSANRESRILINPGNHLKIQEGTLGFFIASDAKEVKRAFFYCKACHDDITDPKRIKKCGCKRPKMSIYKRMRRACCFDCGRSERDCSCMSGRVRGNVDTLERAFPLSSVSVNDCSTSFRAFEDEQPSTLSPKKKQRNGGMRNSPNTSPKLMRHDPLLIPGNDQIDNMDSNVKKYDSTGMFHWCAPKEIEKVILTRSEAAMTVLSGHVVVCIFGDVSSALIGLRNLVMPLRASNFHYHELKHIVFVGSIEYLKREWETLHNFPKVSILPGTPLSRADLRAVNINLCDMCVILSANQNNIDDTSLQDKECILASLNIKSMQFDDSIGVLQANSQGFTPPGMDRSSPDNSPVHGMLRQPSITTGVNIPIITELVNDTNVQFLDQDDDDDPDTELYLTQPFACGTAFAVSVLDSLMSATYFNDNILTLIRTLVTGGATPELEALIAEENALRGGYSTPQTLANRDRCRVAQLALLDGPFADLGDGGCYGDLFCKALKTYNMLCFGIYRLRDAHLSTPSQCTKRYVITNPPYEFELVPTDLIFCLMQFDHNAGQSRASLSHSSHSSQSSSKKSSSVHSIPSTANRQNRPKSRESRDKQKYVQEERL
T2 sequence (Q86W47 whole entry partner): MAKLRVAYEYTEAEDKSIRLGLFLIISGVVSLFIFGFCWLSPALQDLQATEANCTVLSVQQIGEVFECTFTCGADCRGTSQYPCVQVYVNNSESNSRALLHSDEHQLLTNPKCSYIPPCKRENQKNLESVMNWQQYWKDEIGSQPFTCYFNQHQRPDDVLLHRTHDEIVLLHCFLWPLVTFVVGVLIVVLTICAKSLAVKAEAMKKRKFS
T1 sequence (Q12791 whole entry): as the sequence (Q12791 whole entry) above

Molecule | inhibition of membrane currents (Slo-1; TEA 5 mM) | sensitivity of membrane currents (Slo-1/BKB3; TEA 5 mM) | inhibition (block) of membrane currents (Slo-1) | inhibition (block) of membrane currents (Slo-1; listed as charybdotoxin) | sensitivity (block) of membrane currents (Slo-1/BKB3) | sensitivity (block) of membrane currents (Slo-1/BKB3; listed as charybdotoxin)
CC[N+](CC)(CC)CC [TEA] | strongly inhibited | sensitive |  |  |  | 
charybdotoxin [CTX] |  |  | strongly inhibited | almost completely blocked | insensitive | virtually unblocked
